Target: SARS-CoV-2野生型(WT) S蛋白 (病毒颗粒上) (SARS-CoV-2, UniProt P0DTC2 14-1273)
Assay: cell-based or functional assay

B1: 抗体09C7 (antibody, V domains shown)
VH: QVTLRESGPTLVKPKQTLTLTCTFSGFSLSTPGGGVGWIRQPPGKALEWLALIYWDDDKRYSPSLKSSLTITKDTSKNQVVLTMTNMDPVDTATYYCARLTAADTIFDCWGQGTLVTV
VL: QSALTQPASVSGSPGLSITISCTATSSDVGAYNYVSWYQQHPGQAPKLMIYDVSKRPSGVSNRFSGSKSANTASLTISGLQAEDEADYYCSSYTTTSVVFGGGTKLTVL
For B1, the “IC50, pseudovirus neutralisation (luciferase, Huh-7 cells)” value was 4 ng/mL.

Reference: CN117736314A (ADVACCINE SUZHOU BIOPHARMACEUTICAL CO LTD; UNIV FUDAN, dated 2024)
